Measured values as given in US10053696B2, “MiRNA-489 in treatment of breast cancer” (University of South Carolina, priority 2016, dated 2018).

B1: miR-489: microRNA-489 (SEQ ID NO: 2); overexpressed in cells, e.g. from miR-489 expressing vector in the luciferase assay (nucleic acid, listed as Homo sapiens)
chain: GUGGCAGCUUGGUGGUCGUAUGUGUGACGCCAUUUACUUGAACCUUUAGGAGUGACAUCACAUAUACGGCAGCUAAACUGCUAC

What was measured:
[1] = system: HER2, AKT and MAPK phosphorylation in MCF7 vect and MCF7 HER2 cells; test: Western blot of HER2 signaling after lapatinib treatment; format: cell-based; details: 2 μM lapatinib, 48 h, Western blot (FIG. 3)
Method: (§1) Quantitative real-time RT-PCR analysis, Immunohistochemistry staining (IHC), Western Blot analysis, Fluorescence-Activated Cell Sorting (FACS) assay, Luciferase assay and Xenograft experiments were performed using standard protocol.
(§2) To identify specific miRNAs that may be involved in promotion of breast cancer progression, expression profiles of several (˜200) miRNA were screened and compared for HER2 over-expressing and control MCF7 cells using quantitative RT-PCR (qRT-PCR) analysis.

[2] = system: miR-489, miR-125b and miR-99a expression in MCF7 HER2 cells; test: qRT-PCR of HER2-regulated miRNAs after lapatinib treatment; format: cell-based; details: lapatinib treated MCF7 HER2 cells, qRT-PCR (FIG. 4)
Method: All data are representative of three independent experiments.
as §1, §2

SHP2 = SHP2 expression in breast cancer cell lines after miR-489 overexpression; format: cell-based; details: mRNA and protein levels
3′UTR of HER2 = test: Dual luciferase assay with HER2 3′UTR reporter constructs; format: cell-based, human; details: MCF7 HER2 cells, co-transfected 48 h, normalized with renilla (FIG. 16)
Method: FIG. 16 presents a schematic representation of the HER2 mRNA (wild type (wt) and mutant (mut)) with putative miR-489 binding site in the 3′ UTR, where the seed region is highlighted. MCF7 HER2 cells were co-transfected with either of miR-489 expressing vector or empty vector and renilla expressing vector for 48 h. Firefly luciferase was measured for each condition and normalized with renilla luciferase. Normalized luciferase activity was compared with WT-3′UTR and Mutant 3′ UTR of HER2 (graph).
A 650 bp long 3′ UTR of human HER2 was amplified from genomic DNA and cloned into the pGL3-promoter vector at the same Xba I and BamH I sites. For the mutation analysis putative miR-489 target site within 3′UTR of HER2 was mutated by Phusion site directed mutagenesis kit (Thermofisher Cat# F-541). All sequences were verified by direct sequencing of the plasmids.
as §1
To examine the similar effect of mimic-489 treatment on the expression of HER2, other breast cancer cell lines, AU-565, BT-474, HCC-1954 and ZR-75-1 cells were treated with mimic-489 for 72 hours to isolate total protein and RNA. […]

Molecule | HER2, AKT and MAPK phosphorylation [1] | expression of miR-489, miR-125b and miR-99a after inhibition of HER2 phosphorylation [2] | SHP2 expression (SHP2) | luciferase activity of mutant HER2 3′UTR (3′UTR of HER2) | luciferase activity of wt HER2 3′UTR (3′UTR of HER2)
CS(=O)(=O)CCNCc1ccc(-c2ccc3ncnc(Nc4ccc(OCc5cccc(F)c5)c(Cl)c4)c3c2)o1 [lapatinib] | almost complete blockade | at least partially restored the expression profile |  |  | 
B1 |  |  | reduced SHP2 expression | not the mutant HER2 3′UTR is significantly reduced | significantly reduced
